The target of test [1] is T1, human furin (human, UniProt P09958). As to the kind of experiment: other, pH 7.0, 37C.
Test [2] addresses T1, human furin. Description: other, pH 7.0, 37C. This is another data set of the same source.

Ends that are not written are not given here.

T1 sequence (P09958 108-715): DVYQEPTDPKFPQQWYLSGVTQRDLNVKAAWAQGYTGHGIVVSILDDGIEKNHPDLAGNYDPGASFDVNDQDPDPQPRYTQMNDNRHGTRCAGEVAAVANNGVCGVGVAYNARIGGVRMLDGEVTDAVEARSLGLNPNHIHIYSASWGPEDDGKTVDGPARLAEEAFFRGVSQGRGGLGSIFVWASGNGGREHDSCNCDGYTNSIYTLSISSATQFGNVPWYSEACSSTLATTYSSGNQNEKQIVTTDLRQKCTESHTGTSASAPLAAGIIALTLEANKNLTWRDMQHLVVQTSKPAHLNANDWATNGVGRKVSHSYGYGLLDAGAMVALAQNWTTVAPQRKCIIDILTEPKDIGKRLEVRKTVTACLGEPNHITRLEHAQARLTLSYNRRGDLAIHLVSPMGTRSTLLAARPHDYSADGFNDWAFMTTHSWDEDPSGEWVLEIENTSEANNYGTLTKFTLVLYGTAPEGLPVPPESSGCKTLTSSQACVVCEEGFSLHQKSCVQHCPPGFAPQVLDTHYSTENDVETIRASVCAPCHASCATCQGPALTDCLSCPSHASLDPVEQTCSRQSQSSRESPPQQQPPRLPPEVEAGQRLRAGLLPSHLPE

The Ki is a dissociation constant, usually derived from enzyme kinetics or from competition with a known ligand. Consider Lys-Ala-Lys (not fully specified (N-terminus, C-terminus); printed as C16-KAK-C16) [C16-KAK-C16], for which the results for the Ki in the test with trypsin and in the test with human furin [1] were 15.2 µM and 0.54 µM, respectively.

Regarding KAAAAK (not fully specified) [C16-KAAAAK-C16], in the test with human furin [1], the Ki turned out to be 1.75 µM.

In turn, Lys-Gly-Lys (not fully specified (N-terminus, C-terminus); printed as C16-KGK-C16) [C16-KGK-C16] showed an inhibition constant (Ki) with trypsin of 41.6 µM.

Regarding KAAAK (not fully specified (N-terminus, C-terminus); printed as C16-KAAAK-C16) [C16-KAAAK-C16], the figures for the Ki in the test with trypsin and in the test with human furin [1] were 40.3 µM and 1.72 µM, respectively.

KGGGK (not fully specified) [C16-KGGGK-C16]: the inhibition constant (Ki) in the test with trypsin was found to be 11.1 µM.

Lys-Lys (not fully specified (N-terminus, C-terminus); printed as C16-KK-C16) [C16-KK-C16] displayed a Ki with trypsin of 84.7 µM. Moreover, the binding result with human furin [2] is recorded as “no binding”.

Molecule KAAK (not fully specified (N-terminus, C-terminus); printed as C16-KAAK-C16) [C16-KAAK-C16] displayed a Ki in the test with human furin [1] of 0.97 µM. In other words, the sub-micromolar range.

The values above are taken from patent US20190255141 (published 2019).
